In patent US20190125827A1 (UNIVERSITY OF OTTAWA, published 2019):

Molecular target: T1, endogenous Vps11 (HOPS subunit) (rat, UniProt D3ZTB4 2-941)
T1 construct: whole, on cells; Endogenous protein detected in situ with an anti-Vps11 antibody; also called vacuolar protein sorting-associated protein 11 homolog
T1 sequence: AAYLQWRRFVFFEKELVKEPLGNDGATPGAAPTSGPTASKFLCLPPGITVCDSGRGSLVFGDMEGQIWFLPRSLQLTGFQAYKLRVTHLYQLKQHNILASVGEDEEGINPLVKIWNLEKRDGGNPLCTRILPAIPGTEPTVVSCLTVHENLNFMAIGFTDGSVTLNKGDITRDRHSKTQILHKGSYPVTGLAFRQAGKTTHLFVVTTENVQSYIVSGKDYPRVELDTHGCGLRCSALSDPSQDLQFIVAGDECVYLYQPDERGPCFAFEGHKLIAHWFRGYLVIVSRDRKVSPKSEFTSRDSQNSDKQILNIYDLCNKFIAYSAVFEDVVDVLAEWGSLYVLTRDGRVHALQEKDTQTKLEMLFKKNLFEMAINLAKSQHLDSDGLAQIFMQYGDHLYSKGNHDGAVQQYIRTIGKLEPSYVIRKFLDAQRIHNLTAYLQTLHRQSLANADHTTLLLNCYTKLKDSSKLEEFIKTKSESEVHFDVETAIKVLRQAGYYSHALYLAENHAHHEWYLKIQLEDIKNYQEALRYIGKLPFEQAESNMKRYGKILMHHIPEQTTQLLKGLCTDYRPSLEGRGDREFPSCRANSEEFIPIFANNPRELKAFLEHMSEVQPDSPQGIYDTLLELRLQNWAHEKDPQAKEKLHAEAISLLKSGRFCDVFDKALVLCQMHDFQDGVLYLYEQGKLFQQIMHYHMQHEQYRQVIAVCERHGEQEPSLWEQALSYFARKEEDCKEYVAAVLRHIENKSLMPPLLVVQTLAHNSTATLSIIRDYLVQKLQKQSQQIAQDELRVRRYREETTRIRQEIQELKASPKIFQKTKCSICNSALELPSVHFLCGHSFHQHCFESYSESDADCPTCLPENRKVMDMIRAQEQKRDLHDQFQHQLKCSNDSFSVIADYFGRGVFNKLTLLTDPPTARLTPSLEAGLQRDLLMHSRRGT
Test: proximity ligation assay (in situ co-IP) in transfected hepatic cells, baseline (OA) and 1 h post-EPA
Experimental: The A18-C3 cells were cultured in DMEM (Invitrogen) supplemented with fetal bovine serum (20%), penicillin (50 U/mL), streptomycin (50 μg/mL, Invitrogen) and Geneticin/G418 (500 μg/mL, Gibco) at 37° C. in 5% CO₂. Transfection was conducted when cells were 60-70% confluence. Appropriate plasmids were mixed with FuGENE HP extreme reagent (Roche Diagnostic), according to manufacturer's protocol, and incubated for 30 min. […] In silencing experiments, appropriate siRNAs were transfected into cells using the X-treme GENE siRNA regent (Roche Diagnostic).
One h post-EPA treatment, the cells were fixed, permeabilized and incubated with an anti-RFP antibody together with proper anti-Vps11, -Vps39, and -Vps41 antibodies. The proximity ligation was achieved using the Duolink secondary PLA probes (Olink AB) that detects substrate formation between the two antibodies as described previously³⁸.

B1: mCherry-tagged Arl8b^T34N (other)
chain: MLALISRLLDWFRSLFWKEEMELTLVGLQYSGKNTFVNVIASGQFSEDMIPTVGFNMRKVTKGNVTIKIWDIGGQPRFRSMWERYCRGVNAIVYMIDAADREKIEASRNELHNLLDKPQLQGIPVLVLGNKRDLPNALDEKQLIEKMNLSAIQDREICCYSISCKEKDNIDITLQWLIQHSKSRRS
notes: Fusion protein expressed by plasmid transfection inside McA-RH7777 (A18-C3) hepatic cells and detected in situ with an anti-RFP antibody; also called ^mCherryArl8b^T34N; RFP-tagged Arl8b^T34N; not shown: C-terminal mCherry tag and its RDP linker
B1: no binding.
